Primed or numbered codes have the meaning given here. No end group written: not given here. FITC′ = fluorescein isothiocyanate label; GST = glutathione S-transferase fusion
Columns and labels:
[1] = biological target: T1, myc-tagged USP7 D762R/D764R (human, UniProt Q93009 1-1102, D762R/D764R | D762R/D764R); assay: co-IP; 293T cells transfected with myc-USP7 (with or without ICP0); RIPA lysate, anti-myc antibody and protein A/G agarose; Western blot for ICP0, GMPS or UHRF1; settings: partners not purified
T1 construct: USP7, human, full length with D762R and D764R, sub-cloned into pCANmycUSP7; also called MRGR; D762R/D764R (MRGR) USP7; source: 293T cells, transfected (pCANmycUSP7), in lysate

USP7-CTD (535-1102) [2] = biological target: T2, USP7-CTD (535-1102) (human, UniProt Q93009 535-1102); assay: fluorescence polarisation; USP7 proteins titrated (0 to 200 μM) into 40 nM N-terminally FITC-labeled peptide; 0.01% Triton X-100, 150 mM NaCl, 20 mM Tris pH 7.5; settings: both partners purified
T2 construct: USP7, human, residues 535-1102 (spacer helix and five Ubl domains); Cloned in p15TV-L; also called WT USP7-CTD; C-terminal domain; source: E. coli BL21(DE3)mgk, purified (nickel-NTA, SEC)

USP7-CTD (535-1102) [3] = biological target: T2, USP7-CTD (535-1102); assay: pull-down; GST pull-down: 250 μg USP7 protein with 250 μg GST fusion in 50 mM Tris pH 8.0, 100 mM NaCl, 5 mM DTT, 5% glycerol, on glutathione-sepharose overnight at 4°C; eluted with 30 mM reduced glutathione; Coomassie stained gel; settings: both partners purified
USP7 Ubl123 (535-889) [4] = biological target: T3, USP7 Ubl123 (535-889) (human, UniProt Q93009 535-889); assay: as above; settings: both partners purified
T3 construct: USP7, human, residues 535-889 (spacer helix 535-560 and Ubl1-3); Cloned in p15TV-L; also called native Ubl123; source: E. coli BL21(DE3)mgk, purified (nickel-NTA, SEC)

full length USP7 [5] = biological target: T4, full length USP7 (human, UniProt Q93009 1-1102); assay: as above; settings: both partners purified
T4 construct: Ubiquitin specific protease 7 (USP7, HAUSP), human, full length; also called FL-USP7; USP7-FL; source: Sf9 cells, purified (SEC)

USP7 Ubl12 (535-776) = biological target: T5, USP7 Ubl12 (535-776) (human, UniProt Q93009 535-776); assay: as above; settings: both partners purified
T5 construct: USP7, human, residues 535-776; Cloned in p15TV-L; source: E. coli BL21(DE3)mgk, purified (nickel-NTA, SEC)

USP7 Ubl123 (535-889) [6] = biological target: T3, USP7 Ubl123 (535-889); assay: fluorescence polarisation; USP7 proteins titrated (0 to 200 μM) into 40 nM N-terminally FITC-labeled peptide; 0.01% Triton X-100, 150 mM NaCl, 20 mM Tris pH 7.5; settings: both partners purified
USP7 Ubl123 D762A/D764A = biological target: T6, USP7 Ubl123 D762A/D764A (human, UniProt Q93009 535-889, D762A/D764A | D762A/D764A); assay: as above; settings: both partners purified
T6 construct: USP7, human, residues 535-889 with D762A and D764A; Synthesized (Genscript), in pET15b; also called Ubl123 mutant D762A/D764A; source: E. coli BL21(DE3)mgk, purified (nickel-NTA, SEC)

USP7 Ubl123 D764A = biological target: T7, USP7 Ubl123 D764A (human, UniProt Q93009 535-889, D764A); assay: as above; settings: both partners purified
T7 construct: USP7, human, residues 535-889 with D764A; Synthesized (Genscript), in pET15b; also called Ubl123 mutant D764A; source: E. coli BL21(DE3)mgk, purified (nickel-NTA, SEC)

full length USP7 [7] = biological target: T4, full length USP7; assay: as above; settings: both partners purified
USP7 Ubl123 D762A = biological target: T8, USP7 Ubl123 D762A (human, UniProt Q93009 535-889, D762A); assay: as above; settings: both partners purified
T8 construct: USP7, human, residues 535-889 with D762A; Synthesized (Genscript), in pET15b; also called Ubl123 mutant D762A; source: E. coli BL21(DE3)mgk, purified (nickel-NTA, SEC)

USP7 Ubl123 E759A = biological target: T9, USP7 Ubl123 E759A (human, UniProt Q93009 535-889, E759A); assay: as above; settings: both partners purified
T9 construct: USP7, human, residues 535-889 with E759A; Synthesized (Genscript), in pET15b; also called Ubl123 mutant E759A; source: E. coli BL21(DE3)mgk, purified (nickel-NTA, SEC)

USP7-CTD (535-1102) [8] = biological target: T2, USP7-CTD (535-1102); assay: fluorescence polarisation; competition: fixed USP7-CTD (8 μM), 40 nM FITC-UHRF1, increasing unlabeled ICP0 peptide (0 to 2500 μM); settings: both partners purified

T1 sequence (Q93009 whole entry D762R/D764R): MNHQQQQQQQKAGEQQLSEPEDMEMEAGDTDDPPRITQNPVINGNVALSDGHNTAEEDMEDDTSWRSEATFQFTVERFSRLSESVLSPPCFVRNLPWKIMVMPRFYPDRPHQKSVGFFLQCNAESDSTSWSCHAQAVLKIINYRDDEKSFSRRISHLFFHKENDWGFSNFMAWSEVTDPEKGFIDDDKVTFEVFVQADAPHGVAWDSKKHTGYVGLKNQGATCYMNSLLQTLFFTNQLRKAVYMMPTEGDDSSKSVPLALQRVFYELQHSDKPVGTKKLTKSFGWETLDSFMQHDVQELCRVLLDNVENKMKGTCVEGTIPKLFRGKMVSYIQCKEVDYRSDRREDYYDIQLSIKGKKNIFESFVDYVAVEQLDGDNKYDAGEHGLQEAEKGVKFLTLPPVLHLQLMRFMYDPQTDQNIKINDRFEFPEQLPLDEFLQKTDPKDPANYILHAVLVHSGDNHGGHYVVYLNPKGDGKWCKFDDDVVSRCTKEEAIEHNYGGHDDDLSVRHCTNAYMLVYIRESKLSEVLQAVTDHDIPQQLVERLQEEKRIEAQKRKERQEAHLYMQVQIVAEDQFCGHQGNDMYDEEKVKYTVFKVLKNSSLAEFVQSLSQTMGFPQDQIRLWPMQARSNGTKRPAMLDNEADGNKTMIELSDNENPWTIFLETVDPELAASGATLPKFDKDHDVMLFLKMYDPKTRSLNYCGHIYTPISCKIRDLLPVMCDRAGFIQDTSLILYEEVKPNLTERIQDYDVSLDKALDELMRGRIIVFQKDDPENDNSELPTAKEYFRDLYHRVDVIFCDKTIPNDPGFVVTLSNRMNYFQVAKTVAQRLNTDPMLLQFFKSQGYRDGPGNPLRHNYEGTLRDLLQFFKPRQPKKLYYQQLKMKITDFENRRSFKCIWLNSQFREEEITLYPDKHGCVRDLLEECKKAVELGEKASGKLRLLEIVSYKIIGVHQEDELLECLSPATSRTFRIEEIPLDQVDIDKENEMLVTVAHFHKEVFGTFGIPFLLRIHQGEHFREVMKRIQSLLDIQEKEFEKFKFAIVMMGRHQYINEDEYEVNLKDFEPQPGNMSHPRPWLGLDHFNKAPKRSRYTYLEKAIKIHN
T4 sequence (Q93009 whole entry): as the sequence (Q93009 whole entry D762R/D764R) above, with R762D, R764D counted along it
T2 sequence (Q93009 535-1102): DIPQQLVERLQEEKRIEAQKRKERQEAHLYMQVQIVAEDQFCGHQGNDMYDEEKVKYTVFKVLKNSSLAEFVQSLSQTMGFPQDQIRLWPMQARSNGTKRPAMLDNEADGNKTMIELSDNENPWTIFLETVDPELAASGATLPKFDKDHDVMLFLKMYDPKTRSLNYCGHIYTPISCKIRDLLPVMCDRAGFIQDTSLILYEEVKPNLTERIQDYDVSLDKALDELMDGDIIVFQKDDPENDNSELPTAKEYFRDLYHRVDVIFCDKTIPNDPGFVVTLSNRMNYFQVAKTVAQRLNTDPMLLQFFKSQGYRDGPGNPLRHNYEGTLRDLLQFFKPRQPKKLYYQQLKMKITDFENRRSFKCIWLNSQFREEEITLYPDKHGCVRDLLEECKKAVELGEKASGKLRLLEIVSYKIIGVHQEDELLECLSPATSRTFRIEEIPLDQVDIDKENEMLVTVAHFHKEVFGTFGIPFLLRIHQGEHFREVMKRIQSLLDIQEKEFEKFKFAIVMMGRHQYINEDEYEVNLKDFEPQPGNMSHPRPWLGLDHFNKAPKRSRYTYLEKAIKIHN
T3 sequence (Q93009 535-889): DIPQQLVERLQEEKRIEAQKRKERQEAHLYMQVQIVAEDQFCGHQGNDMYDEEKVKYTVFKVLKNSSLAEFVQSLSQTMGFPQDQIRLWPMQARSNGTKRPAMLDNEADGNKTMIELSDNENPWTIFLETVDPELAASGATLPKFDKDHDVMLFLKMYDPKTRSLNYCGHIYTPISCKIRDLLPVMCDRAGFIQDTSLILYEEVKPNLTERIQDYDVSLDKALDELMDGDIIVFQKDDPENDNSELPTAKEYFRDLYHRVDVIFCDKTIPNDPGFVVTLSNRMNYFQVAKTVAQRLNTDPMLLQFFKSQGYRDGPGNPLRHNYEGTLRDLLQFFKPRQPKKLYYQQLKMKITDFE
T9 sequence (Q93009 535-889 E759A): as the sequence (Q93009 535-889) above, with E225A counted along it
T6 sequence (Q93009 535-889 D762A/D764A): as the sequence (Q93009 535-889) above, with D228A, D230A counted along it
T5 sequence (Q93009 535-776): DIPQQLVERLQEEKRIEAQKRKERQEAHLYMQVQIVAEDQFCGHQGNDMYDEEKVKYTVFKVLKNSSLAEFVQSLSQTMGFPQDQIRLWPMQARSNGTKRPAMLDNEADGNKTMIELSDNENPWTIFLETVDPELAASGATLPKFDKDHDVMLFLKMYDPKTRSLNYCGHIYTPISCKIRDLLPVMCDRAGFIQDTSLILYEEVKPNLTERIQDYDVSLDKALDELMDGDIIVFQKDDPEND
T8 sequence (Q93009 535-889 D762A): as the sequence (Q93009 535-889) above, with D228A counted along it
T7 sequence (Q93009 535-889 D764A): as the sequence (Q93009 535-889) above, with D230A counted along it

B1: ICP0 (expressed in 293T cells) (natural protein)
chain: MEPRPGASTRRPEGRPQREPAPDVWVFPCDRDLPDSSDSEAETEVGGRGDADHHDDDSASEADSTDTELFETGLLGPQGVDGGAVSGGSPPREEDPGSCGGAPPREDGGSDEGDVCAVCTDEIAPHLRCDTFPCMHRFCIPCMKTWMQLRNTCPLCNAKLVYLIVGVTPSGSFSTIPIVNDPQTRMEAEEAVRAGTAVDFIWTGNQRFAPRYLTLGGHTVRALSPTHPEPTTDEDDDDLDDADYVPPAPRRTPRAPPRRGAAAPPVTGGASHAAPQPAAARTAPPSAPIGPHGSSNTNTTTNSSGGGGSRQSRAAAPRGASGPSGGVGVGVGVVEAEAGRPRGRTGPLVNRPAPLANNRDPIVISDSPPASPHRPPAAPMPGSAPRPGPPASAAASGPARPRAAVAPCVRAPPPGPGPRAPAPGAEPAARPADARRVPQSHSSLAQAANQEQSLCRARATVARGSGGPGVEGGHGPSRGAAPSGAAPLPSAASVEQEAAVRPRKRRGSGQENPSPQSTRPPLAPAGAKRAATHPPSDSGPGGRGQGGPGTPLTSSAASASSSSASSSSAPTPAGAASSAAGAASSSASASSGGAVGALGGRQEETSLGPRAASGPRGPRKCARKTRHAETSGAVPAGGLTRYLPISGVSSVVALSPYVNKTITGDCLPILDMETGNIGAYVVLVDQTGNMATRLRAAVPGWSRRTLLPETAGNHVMPPEYPTAPASEWNSLWMTPVGNMLFDQGTLVGALDFRSLRSRHPWSGEQGASTRDEGKQ
notes: also called pCI-110 ICP0; source: 293T cells, transfected (pCI-110 ICP0), in lysate
fold decrease of recovery against WT USP7 [1]: 2 fold

B2: FITC-GMPS peptide (peptide)
peptide: {FITC′}-DRTPRKRISKTLN
notes: GMP synthase (GMPS), residues 316-328 ('this GMPS peptide'); also called N-terminal FITC containing GMPS peptide; source: synthetic peptide (CanPeptide)
Kd (USP7-CTD (535-1102) [2]): 32 µM

{FITC′}-TGKGKWKR [FITC-UHRF1 peptide]
Kd (USP7-CTD (535-1102) [2]): 5.6 µM

B3: GST-ICP0 594-775 (domain or fragment)
chain: AVGALGGRQEETSLGPRAASGPRGPRKCARKTRHAETSGAVPAGGLTRYLPISGVSSVVALSPYVNKTITGDCLPILDMETGNIGAYVVLVDQTGNMATRLRAAVPGWSRRTLLPETAGNHVMPPEYPTAPASEWNSLWMTPVGNMLFDQGTLVGALDFRSLRSRHPWSGEQGASTRDEGKQ
notes: ICP0 of herpes simplex virus 1, residues 594-775; also called longer ICP0 peptide; source: E. coli BL21(DE3), purified (glutathione-sepharose)
binding result (USP7-CTD (535-1102) [3]): binds

B4: GST-GMPS peptide (316-328) (peptide)
chain: {GST}-DRTPRKRISKTLN
notes: GMP synthase (GMPS), residues 316-328; also called WT GST-GMPS; source: E. coli BL21(DE3), purified (glutathione-sepharose)
binding result (USP7-CTD (535-1102) [3]): binds

B5: endogenous UHRF1 (natural protein, human (endogenous in 293T), UniProt Q96T88 1-793, looked up)
chain: MWIQVRTMDGRQTHTVDSLSRLTKVEELRRKIQELFHVEPGLQRLFYRGKQMEDGHTLFDYEVRLNDTIQLLVRQSLVLPHSTKERDSELSDTDSGCCLGQSESDKSSTHGEAAAETDSRPADEDMWDETELGLYKVNEYVDARDTNMGAWFEAQVVRVTRKAPSRDEPCSSTSRPALEEDVIYHVKYDDYPENGVVQMNSRDVRARARTIIKWQDLEVGQVVMLNYNPDNPKERGFWYDAEISRKRETRTARELYANVVLGDDSLNDCRIIFVDEVFKIERPGEGSPMVDNPMRRKSGPSCKHCKDDVNRLCRVCACHLCGGRQDPDKQLMCDECDMAFHIYCLDPPLSSVPSEDEWYCPECRNDASEVVLAGERLRESKKKAKMASATSSSQRDWGKGMACVGRTKECTIVPSNHYGPIPGIPVGTMWRFRVQVSESGVHRPHVAGIHGRSNDGAYSLVLAGGYEDDVDHGNFFTYTGSGGRDLSGNKRTAEQSCDQKLTNTNRALALNCFAPINDQEGAEAKDWRSGKPVRVVRNVKGGKNSKYAPAEGNRYDGIYKVVKYWPEKGKSGFLVWRYLLRRDDDEPGPWTKEGKDRIKKLGLTMQYPEGYLEALANREREKENSKREEEEQQEGGFASPRTGKGKWKRKSAGGGPSRAGSPRRTSKKTKVEPYSLTAQQSSLIREDKSNAKLWNEVLASLKDRPASGSPFQLFLSKVEETFQCICCQELVFRPITTVCQHNVCKDCLDRSFRAQVFSCPACRYDLGRSYAMQVNQPLQTVLNQLFPGYGNGR
notes: UHRF1 (NP95), endogenous in 293T cells; also called NP95; source: endogenous, 293T lysate
percent binding relative to recovery with WT USP7 [1]: 21%

B6: GST-ICP0 615-629 (peptide)
chain: PRGPRKCARKTRHAE
notes: ICP0 of herpes simplex virus 1, residues 615-629; also called ICP0 peptide 615–629; GST-ICP0 peptide; source: E. coli BL21(DE3), purified (glutathione-sepharose)
binding result (USP7 Ubl123 (535-889) [4]): binds | binding result (full length USP7 [5]): binds | binding result (USP7 Ubl12 (535-776)): binds | binding result (USP7-CTD (535-1102) [3]): binds

{FITC′}-GPRKCARKTRH [FITC-labeled ICP0 peptide]
Kd (USP7 Ubl123 (535-889) [6]): 1.6 µM | Kd (USP7 Ubl123 D762A/D764A): > 100 µM | Kd (USP7 Ubl123 D764A): > 100 µM | Kd (full length USP7 [7]): 3.2 µM | Kd (USP7 Ubl123 D762A): > 100 µM | Kd (USP7 Ubl123 E759A): > 100 µM

B7: GST-ICP0 611-625 (peptide)
chain: AASGPRGPRKCARKT
notes: ICP0 of herpes simplex virus 1, residues 611-625; also called ICP0 region 611–625; source: E. coli BL21(DE3), purified (glutathione-sepharose)
binding result (full length USP7 [5]): binds | binding result (USP7-CTD (535-1102) [3]): binds

GPRKCARKTRH (not fully specified) [unlabeled ICP0 peptide]
Ki (USP7-CTD (535-1102) [8]): 20.6 µM

B8: GST-ICP0 619-633 (peptide)
chain: RKCARKTRHAETSGA
notes: ICP0 of herpes simplex virus 1, residues 619-633; also called ICP0 peptide 619–633; source: E. coli BL21(DE3), purified (glutathione-sepharose)
binding result (full length USP7 [5]): binds | binding result (USP7-CTD (535-1102) [3]): binds

B9: endogenous GMPS (natural protein)
chain: not shown
notes: GMP synthase (GMPS), endogenous in 293T cells; also called GMP synthase; source: endogenous, 293T lysate
percent binding relative to recovery with WT USP7 [1]: 35%

Reference: article PMC4457826, “Crystal Structure of USP7 Ubiquitin-like Domains with an ICP0 Peptide Reveals a Novel Mechanism Used by Viral and Cellular Proteins to Target USP7” (PLoS Pathogens, 2015)
